Our source for the PSMs values is patent US20250339531A1 (FRED HUTCHINSON CANCER CENTER, published 2025).

In assay [1] the target is T1, Heterogeneous nuclear ribonucleoprotein U (Homo sapiens, UniProt Q00839 2-825).
T1 construct: also called HNRNPU; HNRPU
The experiment in a line: anti-FLAG co-IP LC-MS, exp 3, +IFNg +Dox.

Another assay concerns the target T2, Nucleolin (Homo sapiens, UniProt P19338 2-710).
T2 construct: also called NCL
The experiment in a line: anti-FLAG co-IP LC-MS, exp 3, +IFNg +Dox.

The target of assay [2] is T3, Uncharacterized protein (Fragment) (Homo sapiens).
T3 construct: also called NA (Homology to TAP2)
Put plainly: anti-FLAG co-IP LC-MS, exp 3, +IFNg +Dox.

The target of assay [3] is T4, Heterogeneous nuclear ribonucleoprotein M (Homo sapiens, UniProt P52272 2-730).
T4 construct: also called HNRNPM
T4 sequence (looked up): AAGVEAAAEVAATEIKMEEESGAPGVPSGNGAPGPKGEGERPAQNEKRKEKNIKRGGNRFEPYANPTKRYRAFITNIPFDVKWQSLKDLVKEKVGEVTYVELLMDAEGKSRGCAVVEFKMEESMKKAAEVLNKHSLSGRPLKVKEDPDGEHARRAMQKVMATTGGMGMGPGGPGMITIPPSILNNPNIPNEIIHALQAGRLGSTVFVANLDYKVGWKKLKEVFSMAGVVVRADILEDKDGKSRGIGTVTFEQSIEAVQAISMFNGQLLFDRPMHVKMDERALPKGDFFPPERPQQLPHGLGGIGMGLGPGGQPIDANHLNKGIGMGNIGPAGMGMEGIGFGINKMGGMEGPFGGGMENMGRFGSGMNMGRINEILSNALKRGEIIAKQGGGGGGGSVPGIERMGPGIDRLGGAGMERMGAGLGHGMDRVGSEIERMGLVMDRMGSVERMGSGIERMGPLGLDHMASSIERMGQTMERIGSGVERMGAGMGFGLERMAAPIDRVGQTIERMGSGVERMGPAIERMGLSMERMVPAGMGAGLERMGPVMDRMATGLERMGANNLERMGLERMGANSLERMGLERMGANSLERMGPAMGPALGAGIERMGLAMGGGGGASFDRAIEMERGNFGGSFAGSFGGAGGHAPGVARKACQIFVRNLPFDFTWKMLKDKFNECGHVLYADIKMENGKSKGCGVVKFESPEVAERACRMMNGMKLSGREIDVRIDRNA
The experiment in a line: anti-FLAG co-IP LC-MS, exp 3, +IFNg +Dox.

The target in assay [4] is T5, Cyclin-dependent kinase 4 (Homo sapiens, UniProt P11802 2-303).
T5 construct: also called CDK4
T5 sequence (P11802 2-303 limits assumed): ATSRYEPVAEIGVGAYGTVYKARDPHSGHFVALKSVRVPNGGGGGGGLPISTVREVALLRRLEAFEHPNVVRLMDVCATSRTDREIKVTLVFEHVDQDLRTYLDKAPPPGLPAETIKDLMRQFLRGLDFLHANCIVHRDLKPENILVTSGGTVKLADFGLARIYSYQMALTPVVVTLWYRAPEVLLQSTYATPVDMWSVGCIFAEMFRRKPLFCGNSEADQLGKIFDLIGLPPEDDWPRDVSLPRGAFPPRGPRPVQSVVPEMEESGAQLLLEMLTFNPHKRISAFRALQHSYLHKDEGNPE
Put plainly: anti-FLAG co-IP LC-MS, exp 3, +Dox.

Assay [5] concerns the target T1, Heterogeneous nuclear ribonucleoprotein …. The experiment in a line: anti-FLAG co-IP LC-MS, exp 3, +Dox.
The target in assay [6] is T6, Immunoglobulin kappa variable 2-40 (Homo sapiens).
T6 construct: also called IGKV2-40
T6 sequence (A0A087WW87 20-121): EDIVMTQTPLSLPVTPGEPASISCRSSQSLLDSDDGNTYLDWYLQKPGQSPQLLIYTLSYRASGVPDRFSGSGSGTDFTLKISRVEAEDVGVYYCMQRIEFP
The experiment in a line: anti-FLAG co-IP LC-MS, exp 3, +Dox.

For assay [7], the target named is T7, Nuclease-sensitive element-binding protein 1 (Fragment) (Homo sapiens, UniProt P67809 2-324).
T7 construct: also called YBX1
T7 sequence (P67809 2-324 limits assumed): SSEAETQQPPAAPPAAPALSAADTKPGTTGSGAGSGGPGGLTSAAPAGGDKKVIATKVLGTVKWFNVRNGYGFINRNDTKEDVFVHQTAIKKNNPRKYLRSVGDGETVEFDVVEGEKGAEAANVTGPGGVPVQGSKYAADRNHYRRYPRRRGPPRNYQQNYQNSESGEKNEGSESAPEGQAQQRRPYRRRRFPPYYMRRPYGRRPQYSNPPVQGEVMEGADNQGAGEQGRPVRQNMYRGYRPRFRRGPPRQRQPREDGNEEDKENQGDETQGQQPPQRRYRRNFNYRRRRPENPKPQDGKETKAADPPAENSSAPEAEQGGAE
The experiment in a line: anti-FLAG co-IP LC-MS, exp 3, +Dox.

Assay [8] has as its target T8, DNA-dependent protein kinase catalytic subunit (Homo sapiens, UniProt P78527 1-4128).
T8 construct: also called PRKDC
Put plainly: anti-FLAG co-IP LC-MS, exp 3, +Dox.

Assay [9] addresses ATP-dependent RNA helicase DDX3X (Homo sapiens, UniProt O00571 2-662). The experiment in a line: anti-FLAG co-IP LC-MS, exp 3, +Dox.
The target in assay [10] is T9, Proteasome subunit alpha type (Homo sapiens).
T9 construct: also called PSMA6
The experiment in a line: anti-FLAG co-IP LC-MS, exp 3, +Dox.

Assay [11] has as its target T4, Heterogeneous nuclear ribonucleoprotein …. The experiment in a line: anti-FLAG co-IP LC-MS, exp 3, +Dox.

T1 sequence (Q00839 2-825 limits assumed): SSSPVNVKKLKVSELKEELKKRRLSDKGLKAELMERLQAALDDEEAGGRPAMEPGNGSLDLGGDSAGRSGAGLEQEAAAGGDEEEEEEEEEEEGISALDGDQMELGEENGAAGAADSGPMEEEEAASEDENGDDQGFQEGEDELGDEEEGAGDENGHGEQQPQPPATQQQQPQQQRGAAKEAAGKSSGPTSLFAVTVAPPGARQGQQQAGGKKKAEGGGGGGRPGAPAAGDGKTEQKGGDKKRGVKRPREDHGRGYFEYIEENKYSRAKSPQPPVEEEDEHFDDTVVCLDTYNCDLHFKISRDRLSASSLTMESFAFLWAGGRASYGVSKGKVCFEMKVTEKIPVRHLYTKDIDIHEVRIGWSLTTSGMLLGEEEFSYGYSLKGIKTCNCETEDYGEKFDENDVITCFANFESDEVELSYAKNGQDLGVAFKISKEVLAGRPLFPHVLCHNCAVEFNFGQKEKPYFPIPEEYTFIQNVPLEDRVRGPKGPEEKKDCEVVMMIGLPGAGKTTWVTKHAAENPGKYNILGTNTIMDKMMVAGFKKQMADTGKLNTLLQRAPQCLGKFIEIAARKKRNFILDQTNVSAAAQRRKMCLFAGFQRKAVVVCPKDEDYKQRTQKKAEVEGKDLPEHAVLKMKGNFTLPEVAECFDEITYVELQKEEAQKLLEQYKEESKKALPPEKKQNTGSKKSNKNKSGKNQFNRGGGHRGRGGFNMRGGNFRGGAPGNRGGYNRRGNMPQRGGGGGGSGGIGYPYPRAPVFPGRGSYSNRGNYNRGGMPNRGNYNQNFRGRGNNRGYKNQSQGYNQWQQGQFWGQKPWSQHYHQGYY
Sequence of ATP-dependent RNA helicase DDX3X (O00571 2-662 limits assumed): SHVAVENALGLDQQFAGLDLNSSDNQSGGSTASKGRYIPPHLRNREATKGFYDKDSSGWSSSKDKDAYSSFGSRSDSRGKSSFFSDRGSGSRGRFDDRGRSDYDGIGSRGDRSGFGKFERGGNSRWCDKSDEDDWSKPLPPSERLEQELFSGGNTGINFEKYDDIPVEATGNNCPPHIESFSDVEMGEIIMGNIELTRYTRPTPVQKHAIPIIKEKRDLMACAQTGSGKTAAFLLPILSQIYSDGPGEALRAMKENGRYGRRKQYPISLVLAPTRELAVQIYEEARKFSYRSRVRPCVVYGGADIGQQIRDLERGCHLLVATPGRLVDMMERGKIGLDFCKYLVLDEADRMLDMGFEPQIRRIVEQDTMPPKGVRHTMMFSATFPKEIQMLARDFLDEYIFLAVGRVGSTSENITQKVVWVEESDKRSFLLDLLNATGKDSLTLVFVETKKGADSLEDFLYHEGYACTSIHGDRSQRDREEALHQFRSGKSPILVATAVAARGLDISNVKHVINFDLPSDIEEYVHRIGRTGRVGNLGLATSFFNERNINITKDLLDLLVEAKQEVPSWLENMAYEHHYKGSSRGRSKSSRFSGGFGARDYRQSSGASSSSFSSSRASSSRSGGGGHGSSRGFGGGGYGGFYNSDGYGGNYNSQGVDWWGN
T2 sequence (P19338 2-710 limits assumed): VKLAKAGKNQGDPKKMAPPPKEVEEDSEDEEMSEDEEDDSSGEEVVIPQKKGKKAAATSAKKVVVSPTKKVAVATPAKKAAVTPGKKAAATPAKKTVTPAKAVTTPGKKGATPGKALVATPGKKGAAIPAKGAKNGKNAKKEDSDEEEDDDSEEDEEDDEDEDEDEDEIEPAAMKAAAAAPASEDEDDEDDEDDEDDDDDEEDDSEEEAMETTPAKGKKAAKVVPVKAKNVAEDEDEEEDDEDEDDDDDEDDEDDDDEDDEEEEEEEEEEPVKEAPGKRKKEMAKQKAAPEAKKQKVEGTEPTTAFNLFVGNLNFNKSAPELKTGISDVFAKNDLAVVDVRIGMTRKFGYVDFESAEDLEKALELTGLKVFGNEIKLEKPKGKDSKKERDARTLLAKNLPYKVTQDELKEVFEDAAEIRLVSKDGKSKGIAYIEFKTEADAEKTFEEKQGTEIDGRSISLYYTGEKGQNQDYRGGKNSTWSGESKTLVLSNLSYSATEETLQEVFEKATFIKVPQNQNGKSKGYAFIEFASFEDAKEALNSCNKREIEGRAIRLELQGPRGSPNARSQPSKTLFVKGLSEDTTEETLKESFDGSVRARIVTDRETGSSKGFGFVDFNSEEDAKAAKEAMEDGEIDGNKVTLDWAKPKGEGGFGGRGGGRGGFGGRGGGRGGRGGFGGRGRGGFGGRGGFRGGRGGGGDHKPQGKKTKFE

B1: i3XFLAG-NLS-CTDaa154-424 (other)
chain: MDYKDHDGDYKDHDIDYKDDDDKPPKRMRREPKKKRKVGRAPAQAGGLCSAAPGGGHPAPSWVAFAHTGAWGTGLPAPHVPCAPGALPQGAFVSQAARAAPALQPSQAAPAEGISQPAPARGDFAYAAPAPPDGALSHPQAPRWPPHPGKSREDRDPQRDGLPGPCAVAQPGPAQAGPQGQGVLAPPTSQGSPWWGWGRGPQVAGAAWEPQAGAAPPPQPAPPDASASARQGQMQGIPAPSQALQEPAPWSALPCGLLLDELLASPEFLQQAQPLLETEAPGELEASEEAASLEAPLSEEEYRALLEEL
notes: Doxycycline-induced in MB135 cells for co-IP; also called longCTD; iDUX4-CTD
For B1, the PSMs in [1] came to 9 PSMs; in the assay with Nucleolin, 4 PSMs; in [2], 1 PSMs; in assay [3], 21 PSMs; in [4], 1 PSMs; in assay [5], 4 PSMs. The PSMs in assay [6] was 2 PSMs; in assay [7], 5 PSMs; in assay [8] it was 3 PSMs; in assay [9], 29 PSMs; in [10], 1 PSMs; in [11], 9 PSMs.
